# Laboratory results as given in patent US20030148462A1, “Dual inhibition of sister chromatid separation at metaphase” (President and fellows of Harvard College, priority 2001, published 2003).
# T1: separase (Homo sapiens, UniProt Q14674)
# T1 construct: Full-length human separase was PCR-amplified from a human fetal thymus cDNA library; made in house
# T1 sequence (Q14674 1-1486): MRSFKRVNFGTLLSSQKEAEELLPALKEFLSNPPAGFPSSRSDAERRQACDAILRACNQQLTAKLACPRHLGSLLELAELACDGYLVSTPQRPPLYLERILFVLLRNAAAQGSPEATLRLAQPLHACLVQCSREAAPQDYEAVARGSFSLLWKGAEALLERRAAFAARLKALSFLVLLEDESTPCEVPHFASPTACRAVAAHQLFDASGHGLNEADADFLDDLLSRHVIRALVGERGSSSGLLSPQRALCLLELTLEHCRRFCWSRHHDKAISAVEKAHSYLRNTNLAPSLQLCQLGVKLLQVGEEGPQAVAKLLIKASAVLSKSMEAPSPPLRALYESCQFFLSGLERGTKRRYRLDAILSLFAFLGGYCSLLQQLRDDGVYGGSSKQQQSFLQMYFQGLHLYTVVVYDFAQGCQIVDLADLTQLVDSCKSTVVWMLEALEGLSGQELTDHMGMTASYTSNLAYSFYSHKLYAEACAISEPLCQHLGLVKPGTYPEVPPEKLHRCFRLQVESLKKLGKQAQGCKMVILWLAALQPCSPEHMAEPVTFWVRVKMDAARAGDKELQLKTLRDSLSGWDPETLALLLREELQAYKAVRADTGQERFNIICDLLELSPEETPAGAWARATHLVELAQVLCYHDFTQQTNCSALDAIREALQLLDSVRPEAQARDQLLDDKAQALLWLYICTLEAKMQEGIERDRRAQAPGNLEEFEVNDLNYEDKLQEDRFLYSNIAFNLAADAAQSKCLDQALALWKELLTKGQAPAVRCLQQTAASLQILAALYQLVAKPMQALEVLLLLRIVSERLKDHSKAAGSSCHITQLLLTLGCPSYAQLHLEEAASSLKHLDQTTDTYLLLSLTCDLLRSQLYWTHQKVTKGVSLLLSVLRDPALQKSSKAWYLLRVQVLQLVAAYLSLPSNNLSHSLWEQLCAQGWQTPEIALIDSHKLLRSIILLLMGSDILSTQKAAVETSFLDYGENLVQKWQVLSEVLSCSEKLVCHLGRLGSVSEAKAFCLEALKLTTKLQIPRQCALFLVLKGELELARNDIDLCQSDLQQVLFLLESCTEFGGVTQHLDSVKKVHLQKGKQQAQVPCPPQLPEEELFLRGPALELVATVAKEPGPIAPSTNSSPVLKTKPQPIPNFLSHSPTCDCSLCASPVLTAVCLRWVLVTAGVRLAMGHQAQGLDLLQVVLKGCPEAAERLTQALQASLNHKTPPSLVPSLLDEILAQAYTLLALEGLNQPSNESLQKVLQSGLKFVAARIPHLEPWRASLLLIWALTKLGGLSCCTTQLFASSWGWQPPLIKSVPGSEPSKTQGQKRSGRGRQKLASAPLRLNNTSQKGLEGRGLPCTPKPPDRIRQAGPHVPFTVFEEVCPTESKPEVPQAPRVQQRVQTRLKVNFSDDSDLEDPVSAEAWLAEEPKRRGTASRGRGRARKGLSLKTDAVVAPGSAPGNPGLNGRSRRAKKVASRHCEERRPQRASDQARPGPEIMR
# T1 sequence (Q14674 1536-2120): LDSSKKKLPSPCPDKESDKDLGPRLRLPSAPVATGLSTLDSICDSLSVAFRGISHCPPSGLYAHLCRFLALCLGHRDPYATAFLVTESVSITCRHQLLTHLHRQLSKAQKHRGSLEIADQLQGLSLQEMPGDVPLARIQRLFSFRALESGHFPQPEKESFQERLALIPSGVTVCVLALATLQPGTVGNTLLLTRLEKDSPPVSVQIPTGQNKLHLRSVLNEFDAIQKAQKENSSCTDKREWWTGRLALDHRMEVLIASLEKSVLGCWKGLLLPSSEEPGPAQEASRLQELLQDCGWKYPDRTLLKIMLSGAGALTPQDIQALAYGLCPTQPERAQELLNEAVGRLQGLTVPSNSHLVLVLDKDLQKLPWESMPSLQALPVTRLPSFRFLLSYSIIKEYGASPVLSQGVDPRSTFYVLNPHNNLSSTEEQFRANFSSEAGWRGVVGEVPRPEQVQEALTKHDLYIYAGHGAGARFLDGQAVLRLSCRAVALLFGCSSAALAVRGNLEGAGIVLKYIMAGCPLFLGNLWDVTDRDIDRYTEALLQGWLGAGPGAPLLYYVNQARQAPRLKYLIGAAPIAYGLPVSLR
# B1: human securin co-expressed with tagged separase in 293T cells (other, UniProt O95997 2-202, looked up)
# chain: ATLIYVDKENGEPGTRVVAKDGLKLGSGPSIKALDGRSQVSTPRFGKTFDAPPALPKATRKALGTVNRATEKSVKTKGPLKQKQPSFSAKKMTEKTVKAKSSVPASDDAYPEIEKFFPFNPLDFESFDLPEEHQIAHLPLSGVPLMILDEERELEKLFQLGPPSPVKMPSPPWESNLLQSPSSILSTLDVELPPVCCDIDI
# notes: also called associated securin
# What was measured:
# [1] = molecular target: T1, separase; assay: Re-inhibition of pre-activated separase by recombinant securin (cohesin hSCC1 cleavage); type: biochemical; settings: separase 4 nM, one hour on ice
# Method: FIGS. 7A-7C depict the independent inhibition of separase activity by phosphorylation of separase and by binding of securin. (A) depicts a Western blot (upper panel) and cohesin^hSCC1 cleavage activity using isolated chromosomes as substrate (lower panel). Lane 2: Consecutive treatment of separase with high-Δ90 extract twice. (B) depicts separase that had been pre-activated in low-Δ90 extract that was eluted and incubated with recombinant securin (lanes 2 and 3) or reference buffer (lane 1) for one hour on ice. Subsequently, its cleavage activity towards in vitro translated ^35S-cohesin^hSCC1 was tested (upper panel). The separase concentration in each reaction was 4 nM, as estimated by Coomassie staining. To compare wild type separase with PM-2/4 mutant separase in its ability to bind securin the same experiment was repeated with PM-2/4 (lower panel). Roughly equal separase concentrations in both cases were assured by comparative immunoblotting (see FIG. 4B, lanes 15 and 17). (C) depicts a model for the dual inhibition of separase in metaphase and its activation at anaphase onset. PPase denotes an unknown protein phosphatase that is proposed to act on phosphorylated separase.
# To determine whether securin can inhibit separase independent of the phosphorylation state of separase, and whether separase that has already been activated and has therefore cleaved itself be re-inhibited by either of the two inhibitory mechanisms, active separase was generated by treating a securin/separase complex with a low-Δ90 extract (L; FIG. 7) to degrade securin and dephosphorylate separase. […] Active separase on beads was then incubated with either recombinant securin or a high-Δ90 extract and assayed for its ability to cleave cohesin^hSCC1. […]
# [2] = molecular target: T2, tagged human separase, wild type, with N-terminal ZZ-TEV4-tag (human, UniProt Q14674 1-2120); assay: affinity-purified complex from transfected 293T cells
# T2 construct: It was therefore self-cleaved into about 175 and 55 kDa fragments and dephosphorylated; also called wild type separase; WT
# [3] = molecular target: T3, tagged human separase, wild type, with three N-terminal HA tags (human, UniProt Q14674 1-2120); assay: affinity isolation of tagged separase from metaphase-arrested transfected 293T cells, Western blot
# T3 construct: also called WT; wild type separase; not shown: three HA tags fused to the amino terminus
# [4] = molecular target: T4, catalytically inactive human separase mutant (catalytic cysteine replaced by serine), with three N-terminal … (human, UniProt Q14674 1-2120); assay: affinity isolation of tagged catalytically inactive separase (CS, lane 2) from transfected 293T cells, Western blot
# T4 construct: also called CS; not shown: three HA tags fused to the amino terminus
molecule,measurement,setting,value
B1,Molar excess of securin sufficient to fully suppress cohesin hSCC1 cleavage,[1],~2.5 fold molar excess
same,binding result,[2],binds
same,binding result,[3],binds
same,binding result,[4],binds
